Measurements reported in patent US8357523B2, “Beta-glucosidase variant enzymes and related polynucleotides” (Codexis, Inc., priority 2009, dated 2013).
Substitutions are numbered along the chain they refer to.

B1: 107 (protein)
chain: STAIAQEGAAPAAILHPEKWPRPATQRLIDPAVEKRVDALLKQLSVEEKVGQVIQGDIGTITPEDLRKYPLGSILAGGNSGPNGDDRAPPKEWLDLADAFYRVSLEKRPGHTPIPVLFGIDAVHGHGNIGSATIFPHNIALGATRDPELLRRIGEVTAVEMAATGIDWTFAPALSVVRDDRWGRTYEGFSEDPEIVAAYSAAIVEGVQGKFGSKDFMAPGRIVASAKHFLADGGTDQGRDQGDARISEDELIRIHNAGYPPAIDAGVLTVMASFSSWQGIKHHGHKQLLTDVLKGQMGFNGFIVGDWNAHDQVPGCTKFNCPTSLIAGLDMYMAADSWKQLYENTLAQVKDGTIPMARLDDAVRRILRVKVLAGLFEKPAPKDRPGLPGLETLGSPEHRAVGREAVRKSLVLLKNDKGTLPLSPKARVLVAGDGADNIGKQSGGWTISWQGTGNRNDEFPGATSILGGIRDAVADAGGSVEFDVAGQYKTKPDVAIVVFGEEPYAEFQGDVETLEYQPDQKQDLALLKKLKDQGIPVVAVFLSGRPMWVNPELNASDAFVAAWLPGTEGGGVADVLFTDKAGKVQHDFAGKLSYSWPRTAAQTTVNRGDADYNPLFAYGYGLTYKDKSKVGTLPEESGVPAEAR
B2: 103 (protein)
chain: STAIAQEGAAPAAILHPEKWPRPATQRLIDPAVEKRVDALLKQLSVEEKVGQVIQGDIGTITPEDLRKYPLGSILAGGNSGPNGDDRAPPKEWLDLADAFYRVSLEKRPGHTPIPVLFGIDAVHGHGNIGSATIFPHNIALGATRDPELLRRIGEVTAVEMAATGIDWTFAPALSVVRDDRWGRTYEGFSEDPEIVAAYSAAIVEGVQGKFGSKDFMAPGRIVASAKHFLADGGTDQGRDQGDARISEDELIRIHNAGYPPAIDAGVLTVMASFSSWQGIKHHGHKQLLTDVLKGQMGFNGFIVGDWNAHDQVPGCTKFNCPTSLIAGLDMYMAADSWKQLYENTLAQVKDGTIPMARLDDAVRRILRVKVLAGLFEKPAPKDRPGLPGLETLGSPEHRAVGREAVRKSLVLLKNDKGTLPLSPKARVLVAGDGADNIGKQSGGWTISWQGTGNRNDEFPGATSILGGIRDAVADAGGSVEFDVAGQYKTKPDVAIVVFGEEPYAEFQGDVETLEYQPDQKQDLALLKKLKDQGIPVVAVFLSGRPMWVNPELNASDAFVAAWLPGTEGGGVADVLFTDKAGKVQHDFAGKLSYSWPRTAAQTTVNRGDADYNPLFAYGYGLTYKDKSKVGTLPEESGVPAEARQN
B3: 108 (protein)
chain: STAIAQEGAAPAAILHPEKWPRPATQRLIDPAVEKRVDALLKQLSVEEKVGQVIQGDIGTITPEDLRKYPLGSILAGGNSGPNGDDRAPPKEWLDLADAFYRVSLEKRPGHTPIPVLFGIDAVHGHGNIGSATIFPHNIALGATRDPELLRRIGEVTAVEMAATGIDWTFAPALSVVRDDRWGRTYEGFSEDPEIVAAYSAAIVEGVQGKFGSKDFMAPGRIVASAKHFLADGGTDQGRDQGDARISEDELIRIHNAGYPPAIDAGVLTVMASFSSWQGIKHHGHKQLLTDVLKGQMGFNGFIVGDWNAHDQVPGCTKFNCPTSLIAGLDMYMAADSWKQLYENTLAQVKDGTIPMARLDDAVRRILRVKVLAGLFEKPAPKDRPGLPGLETLGSPEHRAVGREAVRKSLVLLKNDKGTLPLSPKARVLVAGDGADNIGKQSGGWTISWQGTGNRNDEFPGATSILGGIRDAVADAGGSVEFDVAGQYKTKPDVAIVVFGEEPYAEFQGDVETLEYQPDQKQDLALLKKLKDQGIPVVAVFLSGRPMWVNPELNASDAFVAAWLPGTEGGGVADVLFTDKAGKVQHDFAGKLSYSWPRTAAQTTVNRGDADYNPLFAYGYGLTYKDKSKVGTLPEESGVP
B4: 105 (protein)
chain: STAIAQEGAAPAAILHPEKWPRPATQRLIDPAVEKRVDALLKQLSVEEKVGQVIQGDIGTITPEDLRKYPLGSILAGGNSGPNGDDRAPPKEWLDLADAFYRVSLEKRPGHTPIPVLFGIDAVHGHGNIGSATIFPHNIALGATRDPELLRRIGEVTAVEMAATGIDWTFAPALSVVRDDRWGRTYEGFSEDPEIVAAYSAAIVEGVQGKFGSKDFMAPGRIVASAKHFLADGGTDQGRDQGDARISEDELIRIHNAGYPPAIDAGVLTVMASFSSWQGIKHHGHKQLLTDVLKGQMGFNGFIVGDWNAHDQVPGCTKFNCPTSLIAGLDMYMAADSWKQLYENTLAQVKDGTIPMARLDDAVRRILRVKVLAGLFEKPAPKDRPGLPGLETLGSPEHRAVGREAVRKSLVLLKNDKGTLPLSPKARVLVAGDGADNIGKQSGGWTISWQGTGNRNDEFPGATSILGGIRDAVADAGGSVEFDVAGQYKTKPDVAIVVFGEEPYAEFQGDVETLEYQPDQKQDLALLKKLKDQGIPVVAVFLSGRPMWVNPELNASDAFVAAWLPGTEGGGVADVLFTDKAGKVQHDFAGKLSYSWPRTAAQTTVNRGDADYNPLFAYGYGLTYKDKSKVGTLP
B5: 96 (protein)
chain: STAIAQEGAAPAAILHPEKWPRPATQRLIDPAVEKRVDALLKQLSVEEKVGQVIQGDIGTITPEDLRKYPLGSILAGGNSGPNGDDRAPPKEWLDLADAFYRVSLEKRPGHTPIPVLFGIDAVHGHGNIGSATIFPHNIALGMTRDPELLRRIGEVTAEEMAATGIDWTFAPALSVVRDDRWGRTYEGFSEDPEIVAAYSAAIVEGVQGKYGSKDFMAPGRIVASAKHFLADGGTDQGRDQGDARISEDELIRIHNAGYPPAIDAGVLTVMASFSSWQGIKHHGHKQLLTDVLKGQMGFNGFIVGDWNAHDQVPGCTKFNCPTSLIAGLDMYMAADSWKQLYENTLAQVKDGTIPMARLDDAVRRILRVKVLAGLFEKPAPKDRPGLPGLETLGSPEHRAVGREAVRKSLVLLKNDKGTLPLSPKARVLVAGDGADNIGKQSGGWTISWQGTGNRNDEFPGATSILGGIRDAVADAGGSVEFDVAGQYKTKPDVAIVVFGEEPYAEFQGDVETLEYQPDQKQDLALLKKLKDQGIPVVAVFLSGRPMWVNPELNASDAFVAAWLPGTEGGGVADVLFTDKAGKVQHDFAGKLSYSWPRTAAQTTVNRGDADYNPLFAYGYGLTYKDKSKVGTLPEESGVPAEARQNAGIYFRAGALRLPGRFL
B6: 99 (protein)
chain: B5 chain with N128K, M143A, E159V, Y211F, I222S, S225C
B7: 98 (protein)
chain: B5 chain with T2A, M143A, E159V, A162T, A201P, Y211F, I222A
B8: 101 (protein)
chain: B5 chain with M143A, E159V, A162T, Y211F, I222A, S225C
B9: 102 (protein)
chain: B5 chain with M143A, E159V, A162T, Y211F, S225C, A573S
B10: 97 (protein)
chain: B5 chain with E159V, E642A, A643P
B11: 106 (protein)
chain: STAIAQEGAAPAAILHPEKWPRPATQRLIDPAVEKRVDALLKQLSVEEKVGQVIQGDIGTITPEDLRKYPLGSILAGGNSGPNGDDRAPPKEWLDLADAFYRVSLEKRPGHTPIPVLFGIDAVHGHGNIGSATIFPHNIALGATRDPELLRRIGEVTAVEMAATGIDWTFAPALSVVRDDRWGRTYEGFSEDPEIVAAYSAAIVEGVQGKFGSKDFMAPGRIVASAKHFLADGGTDQGRDQGDARISEDELIRIHNAGYPPAIDAGVLTVMASFSSWQGIKHHGHKQLLTDVLKGQMGFNGFIVGDWNAHDQVPGCTKFNCPTSLIAGLDMYMAADSWKQLYENTLAQVKDGTIPMARLDDAVRRILRVKVLAGLFEKPAPKDRPGLPGLETLGSPEHRAVGREAVRKSLVLLKNDKGTLPLSPKARVLVAGDGADNIGKQSGGWTISWQGTGNRNDEFPGATSILGGIRDAVADAGGSVEFDVAGQYKTKPDVAIVVFGEEPYAEFQGDVETLEYQPDQKQDLALLKKLKDQGIPVVAVFLSGRPMWVNPELNASDAFVAAWLPGTEGGGVADVLFTDKAGKVQHDFAGKLSYSWPRTAAQTTVNRGDADYNPLFAYGYGLTYKDKSKVGTLPEE
B12: 104 (protein)
chain: STAIAQEGAAPAAILHPEKWPRPATQRLIDPAVEKRVDALLKQLSVEEKVGQVIQGDIGTITPEDLRKYPLGSILAGGNSGPNGDDRAPPKEWLDLADAFYRVSLEKRPGHTPIPVLFGIDAVHGHGNIGSATIFPHNIALGATRDPELLRRIGEVTAVEMAATGIDWTFAPALSVVRDDRWGRTYEGFSEDPEIVAAYSAAIVEGVQGKFGSKDFMAPGRIVASAKHFLADGGTDQGRDQGDARISEDELIRIHNAGYPPAIDAGVLTVMASFSSWQGIKHHGHKQLLTDVLKGQMGFNGFIVGDWNAHDQVPGCTKFNCPTSLIAGLDMYMAADSWKQLYENTLAQVKDGTIPMARLDDAVRRILRVKVLAGLFEKPAPKDRPGLPGLETLGSPEHRAVGREAVRKSLVLLKNDKGTLPLSPKARVLVAGDGADNIGKQSGGWTISWQGTGNRNDEFPGATSILGGIRDAVADAGGSVEFDVAGQYKTKPDVAIVVFGEEPYAEFQGDVETLEYQPDQKQDLALLKKLKDQGIPVVAVFLSGRPMWVNPELNASDAFVAAWLPGTEGGGVADVLFTDKAGKVQHDFAGKLSYSWPRTAAQTTVNRGDADYNPLFAYGYGLTYKDKSKVGTLPEESGVPAEARQNAGIY

Assay: High throughput cellobiose assay: fold improvement in cellobiase activity of CelA variants over a control enzyme (Tables 2A-2D, 3, 5, 6, 7)
Type: biochemical
Conditions: 3.3 g/l cellobiose, 55° C. and pH 6.0
In the case of B1, the “Fold improvement over Control Variant No. 5 from Table 2A” value is reported as “++ (++ = 1.1 to 6 fold improvement over control Variant No. 2)”. With B2 the “Fold improvement over Control Variant No. 5 from Table 2A” value was “++ (++ = 1.1 to 6 fold improvement over control Variant No. 2)”. In the case of B3, the “Fold improvement over Control Variant No. 5 from Table 2A” value is reported as “++ (++ = 1.1 to 6 fold improvement over control Variant No. 2)”. In the case of B4, the “Fold improvement over Control Variant No. 5 from Table 2A” value is reported as “++ (++ = 1.1 to 6 fold improvement over control Variant No. 2)”. With B5 the “Fold improvement over Control Variant No. 5 from Table 2A” value was “++ (++ = 1.1 to 6 fold improvement over control Variant No. 2)”. In the case of B6, the “Fold improvement over Control Variant No. 5 from Table 2A” value is reported as “+++ (+++ = 6 to 13 fold improvement over control Variant No. 2)”. With B7 the “Fold improvement over Control Variant No. 5 from Table 2A” value was “+++ (+++ = 6 to 13 fold improvement over control Variant No. 2)”. For B8, the “Fold improvement over Control Variant No. 5 from Table 2A” value was “+++ (+++ = 6 to 13 fold improvement over control Variant No. 2)”. In the case of B9, the “Fold improvement over Control Variant No. 5 from Table 2A” value is reported as “++ (++ = 1.1 to 6 fold improvement over control Variant No. 2)”. For B10, the “Fold improvement over Control Variant No. 5 from Table 2A” value was “+++ (+++ = 6 to 13 fold improvement over control Variant No. 2)”. With B11 the “Fold improvement over Control Variant No. 5 from Table 2A” value was “++ (++ = 1.1 to 6 fold improvement over control Variant No. 2)”. For B12, the “Fold improvement over Control Variant No. 5 from Table 2A” value was “++ (++ = 1.1 to 6 fold improvement over control Variant No. 2)”.
